B1: SEQ ID NO:44: amidohydrolase, Mycobacterium avium 104 (protein, listed as Mycobacterium avium)
chain: MARIITVEEHFQHPEVSARVAELTGPAVEGLAEFGNAFSLDPDSTARLGGNRLAHMDQVGIDVQVVSHGNGSPGTLQHPEAVELCRRVNNDLAAQIAENPDRFRGFATLPLYDPAAAAEELRRCVGDLGFVGALIAGSYDGLFLDDERFDPILTAAEAVDFPIYVHPGLPEAPVSQRYYAGSWPASVHMMFSGPAFGWHAEAGIHIVRLILSGALDRHPTLKLLSGHWGELAAFYLERLDETLGLLPTGLERAPSDYYRQQVWITPSGMYNQNQLNFMTAELGAQRIIYSEDFPYVVRDNVSTFLEQAGLSEADTHAIAHTNAEALLRI
B2: SEQ ID NO:30: o-pyrocatechuate decarboxylase, Enterobacter aerogenes KCTC 2190 (protein)
chain: MARGKIALEEHVSTPENNRLWDSTGEANRNGSEYMQDVERRLLDRSIQLEEMAQRNIDHVILSLTSPGAQSILDKAKAVSFARDTNDFIVDNYVKPNPDKFSAFATLALQNPEAAAEELERAVKKLGMKGALINGYTNVKDSEHGLYLDDESMLVFWDKVNELNVPVYLHPREPLEGPARGIYTGYESLIGSAWGFAQETAVHAIRLMMSGLFDRYPNLNLVLGHLGEGLVHMLPRTQHRLYRQRFGCGLGKAEKPLMHYLQNNFIVTTSGHFNTHSLNNAIEVMGADRVMFSVDYPYEDIHQACDWFDPLEMDEGLKEKIAWGNASRVFNIK
modifications: Enterobacter aerogenes
B3: SEQ ID NO:49: amidohydrolase 2, Streptomyces sp. SPB78 (protein, listed as Streptomyces sp.)
chain: MAKIIALEEHFSDPAVAKAGAARARALSPGFAASYSPASGLPYSPSPEVLENLAEKRLADMDAGGITMQVLSGLGAQTVPADVAPALVAGSNDKAAAAVRAHPDRFAAFAALPTATPEAAVAELDRSVNELGFVGTLIMGRTEGEFLDAPRFEPILARAAALKVPVFLHPGVPPREITDSNYAAGLPTGIGTRLQTAAWGWHQETAVHFLHLVHSGVLDRYPDLQFILGHWGEMIPFYLDRVDEALPQRATGLDRSFHEYFRENVYLAPSGMWSQAQLRFCLETVPLERIVFAVDYPFIGNEGAVPFLEKAELPQADKRKIAHENAERLLGL
B4: SEQ ID NO:46: decarboxylase, Rhodococcus opacus B4 (protein, listed as Rhodococcus opacus)
chain: MARIITLEEHYLDPAIAAASAPLARELSPDFAAAYDPASGLSYTPSAQVLQDLGQRRIADMDTHGISMQVLSCLTTQQVPADVAPDLVRAANDTAAAAVRAHPDRFAAFAALPTTAPDAAATELARCIDDLGFVGTMINGRTDGEFLDAPRFDPILATAAARNVPIYLHPAVPPRATSDSNYAGLAPLVTARLQTSAWGWHQETAVHFLHLVLSGVLDRYPNLQFILGHWGEMIPFYLDRLDEALPQAVTNLDRTISDYVRENVYITPSGMFNQAQLQYCVETLGVDRILYSVDYPFIGNDGAVSFLDEANLPDEAKHQIAHQNTEKLLGL
B5: SEQ ID NO:35: amidohydrolase, Burkholderia sp. CCGE1001 (protein)
chain: MAFKASRKIALEEHFAIDATVQDSAGFVPPSYWAELKRRLLDIHDRRIDEMDRNGVELMVLSLNAPTVQAVPNIKDAYDLSRRANDFLAEQIVKRPERFKGFAALPMQSPDLAARELERCVKELNFVGALVNGFSQVEESGTALYYDLPQYRQFWSVVQALDVPFYLHPRNPLPAHAPIYEGHPWLLGPTWAFGQETAVHALRLMGSGLFDEYPELKIILGHMGEGLPYSMWRIDNRNAWVETQPNYPAKKRIAEYFHKNFWLTTSGNFRTQTLIDAMLEIGSDRILFSTDWPFENVDHAAQWFDDAAISENDRIKIARTNAARLFKLEP
modifications: Burkholderia sp
B6: SEQ ID NO:28: 5-carboxyvanillate decarboxylase, Sphingomonas paucimobilis (protein, listed as Sphingomonas paucimobilis)
chain: MARLIATEEAVTFQPVVDALRAHSRTDDASLDMILVRDVYGDEPARPAMIGRLSDVTGERLAEMDSNGVDMHLLSLTAPGVQMFDAETGTRLARIANDLMAQTVAANPTRFAGLGTFAPQDPASAAREIERVATQLRLNGLVINSHTNDLYYDDPFFHPVFEAIEASGLALYIHPRAPSKQIDRAFRDYGMNSAIWGYGIETSTNAVRMILSGLFDRFPRLKIVLGHMGEAIPFWLWRLDYMHGNATTFGGAPKLKLKPSEYFRRNFAITTSGVESHAALRYSIEVLGPENVMWAIDYPYQPMAPAVQFIRTAPIPEDVKAMVAGGNAARIFRIT
B7: SEQ ID NO:48: amidohydrolase, Amycolatopsis mediterranei U32 (protein, listed as Amycolatopsis mediterranei)
chain: MASMKLYGLEEHFVTADVIEAWRRRDPGLAEPMMKWAVASDITPALLDVDGGRIAAMDDAGIDTTVLSLTTPGLQNLDAAEAVALQAPTNDLIAAAVRRHPGRFQGFATLATSAPAAAADELRRAVTELGLNGALVNANSRGRALDAPGFWDIYEAAEDLRAPVYLHPGVPVPAVTEAYYRGFGEPVNSMLATGAFGWHYDAGLTILRMIVAGVFDRFPGLQVILGHWGEVVLFYLDRVAAMDKLTALRRPIAEYFRSNIFITPGGISSHKYLRWSLETVGVERIMYASDYPFNTERAGSARRFLDTAPVDEAGRERIAYRNWEELIAGIRR
B8: SEQ ID NO:34: amidohydrolase, Cupriavidus necator N-1 (protein)
chain: MAQGKIGLEEHFAIPETLNDSAGFVPGDYWKELSRRLLDIQDDRLRQMDENGMEMMLLSLNAPAVQAVPDRKQACELAVRANDFLAEQVSRRPDRFQALAALPLQDPDFATVELTRCVNELGMRGALVNGFSQIDTPDNVVYYDAPQYASFWAAVEKLDVPFYLHPRNPIASWAQIYDGHPWLLGPTWAFGQETAVHALRLMASGLFDRHPALQIVLGHLGEGLPYSLWRIDNRNAWVKAPKTHPAKKTFRHYFQQNFHLTTSGNFHNQTLIDAILEIGADRILFSTDWPFENIDHAAKWFDSASISEADRTKIGRTNAMKLFKLVA
modifications: Cupriavidus necator
B9: SEQ ID NO:31: reversible 2,6-dihydroxybenzoic acid decarboxylase, Agrobacterium sp. H13-3 (protein, listed as Agrobacterium sp.)
chain: MAQGKVALEEHFAIPETLQDSAGFVPGDYWKELQHRLLDIQDTRLKLMDAHGIETMILSLNAPAVQAIPDKTKAIEIARRANDVLAEECAKRPDRFLAFAALPLQDPDAATEELQRCVNDLGFVGALVNGFSQEGDGQTPLYYDLPQYRPFWGEVEKLDVPFYLHPRNPLPQDSRIYDGHPWLLGPTWAFAQETAVHALRLMASGLFDEHPRLNIILGHMGEGLPYMMWRIDHRNAWVKLPPRYPAKRRFMDYFNENFHITTSGNFRTQTLIDAILEIGADRILFSTDWPFENIDHASDWFNATSIAEADRVKIGRTNARRLFKLDGA
B10: SEQ ID NO:36: hypothetical protein AGRO_1970, Agrobacterium sp. ATCC 31749 (protein, listed as Agrobacterium sp.)
chain: MAQGKVALEEHFAIPETLQDSAGFVPGDYWTELQHRLLDIQDTRLKLMDAHGIETMILSLNAPAVQAIPDKTKAIEIARRANDALAEECAKRPNRFLAFAALPLQDPDAATQELQRCVNDLGFVGALVNGFSQEGDGQIPLYYDLPQYRPFWGEVEKLDVPFYLHPRNPLPQDSRIYDGHPWLLGPTWAFAQETAVHALRLMASGLFDEHPRLNIILGHMGEGLPYMMWRIDHRNAWVKLPPRYPAKRRFVDYFNENFHITTSGNFRTQTLIDAILEIGADRILFSTDWPFENIDHASDWFHATSIAEADRVKIGRTNARRLFKLDGR
B11: SEQ ID NO:47: hypothetical protein SOD_m00560, Serratia odorifera 4Rx13 (protein, listed as Serratia odorifera)
chain: MAKIICLEEHTLDKALVMASMPAALAQAPFLSDWGKTITDGNLPDRSRPQIEKNDLINVKGADIGRGRLDDMDEAGITMQVLSVGGFPHLISAAEGVDLNRAANDRLANAVNAHPDRFAAFATLPWAQPDAAEKELERAVKELGFKGALLNGRPSIHFLDHPDYDGLLARFNALGVPLYLHPGLPVRSVQQAYYSGFSDEVTARLSMFGWGWHHEAGIHLLRLILSGAFDKYPNLQVISGHWGEMLPFWLQRLDDSLPQAATGLRRTITQTFREQVYVTPSGMLTLPHFQFIYALLGAERILFSVDYPYQTLDGVKAFIQSLPVPEEAKEAIAFRNAERLFGLTS
B12: SEQ ID NO:33: amidohydrolase, Rhizobium leguminosarum bv. viciae 3841 (protein, listed as Rhizobium leguminosarum)
chain: MAQGKIALEEHFAIPETLQDSAGFVPGDYWKELSARLLDIQEKRLRLMDAHGIEKMILSLNAPAVQAIPDRAKALEISRRANDFLAEQCVKNPNRFLGFAALPLQDPDAATQELQRCVTTMGFVGALVNGFSQEGDGTTPLYYDLPQYRSFWAEVEKLNVPFYLHPRNPLPQDSRIYAGHSWLMGPTWAFAQETAVHALRLMGSGLFDEHPALRIIVGHMGEGLPYMMWRIDNRNAWVKVEKSYPAKRPIADYFNENFYITTSGNFRTQSLIDAMLEIGADRILFSADWPFENIDHAANWFDSATISEADRLKIGRTNAVSLFKLDR
B13: SEQ ID NO:43: amidohydrolase, Rhizobium leguminosarum bv. trifolii WSM2304 (protein, listed as Rhizobium leguminosarum)
chain: MAQGKIALEEHFAIPETLQDSAGFVPGDYWTELSARLLDIQDKRLRLMDTHGIEKMILSLNAPAVQAIPDKAKAVEISRRANDFLAEQCVKNPNRFLGFAALPLQDPDAATQELQRCVTTMGFVGALVNGFSQEGDGTTPLYYDLPQYRPFWAEVEKLDVPFYLHPRNPLPQDSRIYAGHSWLMGPTWAFAQETAVHALRLMGSGLFDEHPALRIIVGHMGEGLPYMMWRIDNRNAWVKVEKSYPAKRPIADYFNENFYITTSGNFRTQSLIDAMLEIGADRILFSADWPFENVDHAANWFDSATISEADRLKIGRTNAVSLFKLDR

Assay: 14C assay with IPTG-induced recombinant E. coli cells (14CO2 capture from [14C]-carboxyl-labeled dicamba)
Conditions: E. coli cell assay, 108 sequences tested
With B1 the “decarboxylation activity of dicamba” value was “showed decarboxylation activity of dicamba”.
In the case of B2, the “decarboxylation activity of dicamba” value is reported as “showed decarboxylation activity of dicamba”.
In the case of B3, the “decarboxylation activity of dicamba” value is reported as “showed decarboxylation activity of dicamba”.
With B4 the “decarboxylation activity of dicamba” value was “showed decarboxylation activity of dicamba”.
With B5 the “decarboxylation activity of dicamba” value was “showed decarboxylation activity of dicamba”.
With B6 the “decarboxylation activity of dicamba” value was “showed decarboxylation activity of dicamba”.
In the case of B7, the “decarboxylation activity of dicamba” value is reported as “showed decarboxylation activity of dicamba”.
With B8 the “decarboxylation activity of dicamba” value was “showed decarboxylation activity of dicamba”.
For B9, the “decarboxylation activity of dicamba” value was “showed decarboxylation activity of dicamba”.
In the case of B10, the “decarboxylation activity of dicamba” value is reported as “showed decarboxylation activity of dicamba”.
With B11 the “decarboxylation activity of dicamba” value was “showed decarboxylation activity of dicamba”.
For B12, the “decarboxylation activity of dicamba” value was “showed decarboxylation activity of dicamba”.
For B13, the “decarboxylation activity of dicamba” value was “showed decarboxylation activity of dicamba”.
